± gives the standard deviation.
Test: protein stability index of a GFP-peptide fusion (GPS, HEK-293T) (PSI 1-6); higher = more stable
Settings: c terminus: a fixed tail appended
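Note: 24-mer peptide tiles fused after GFP, lentivirally expressed, FACS-sorted into six equal bins by GFP/DsRed ratio, decoded by Illumina sequencing, PSI is the read-weighted mean bin number.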

Sequence	protein stability index (treatment: DMSO)	protein stability index (treatment: MLN4924 1 uM, 8 h)
VEGFRVTLVDEGDLYNWEVAIFGP [CDC34]	3.11 ± 0.82	2.85 ± 0.95
PQDQAGPGGAPRVASRNLFPKDTL [CLPTM1]	4.41 ± 0.36	4.61 ± 0.28
NGQKPLGAAEPITVKFANNPSQKT [ELAVL3]	4.85 ± 0.36	4.83 ± 0.23
SVPLAYFLLSQQTDLPECEQSSAR [TCF25]	3.07 ± 0.25	2.89 ± 0.5
IPNAASEEGDEDDWASNKVMFKIG [WEE1]	4.62 ± 0.13	4.28 ± 0.3
PPARGPRMSYGGSTCHAYSNTRDR [RBMY1A1]	4.1 ± 0.098	4.07 ± 0.12
ADSVITVGRGEVVTVRVPTHEEGS [ACBD3]	4.88 ± 0.2	4.88 ± 0.16
GNLQLDCLAQGWKQYQQRAFGWFR [RTP4]	2.3 ± 0.5	2.24 ± 0.23
RMEEIVEGCTGALHILARDVHNRI [CTNNB1]	2.74 ± 0.19	2.89 ± 0.28
EELTYIIKQDINSLNKQIAQLQDF [STX5]	2.61 ± 0.21	2.85 ± 0.26
RAACFDGHLEVVRYLVGEHQADLE [FEM1A]	3.31 ± 0.27	3.39 ± 0.25
QYQYERYGAVELSGAGRRKNATRE [IRX6]	4.5 ± 0.39	4.54 ± 0.32
DKRRDLAHLAAEVEGKCLQSGFEM [TRIM39]	3.97 ± 0.18	4.03 ± 0.36
CFQSCLCCCCYQSKSLMTSVPMNG [EDNRA]	2.31 ± 0.53	2.41 ± 0.18
LIHKADEVTLSEAGSTAGAAETRG [PALM]	5.31 ± 0.2	5.18 ± 0.15
ADPLRVSSRDKLTEMAASSQGNFE [FUNDC2]	4.96 ± 0.2	5.18 ± 0.26
RALQAALAESGGSPDVLQMLKIHR [TRADD]	2.61 ± 0.34	2.91 ± 0.25
MSAAQGWDRNRRRGGGAAGAGGGG [KLHDC10]	4.97 ± 0.27	4.92 ± 0.25
ARGIAGEKFDIVKKWGINTYKCTK [ARFIP2]	3.3 ± 0.35	3.27 ± 0.077
YYPTSSSTSFMSSSSSSSSWLTRR [EMD]	3.23 ± 0.19	3.29 ± 0.39
QTNSETAVVALTQDQPSEAATGGA [HDAC6]	5.31 ± 0.2	5.42 ± 0.062
AIPIEIKSIDDTSNFDDFPESDIL [STK38L]	4.67 ± 0.17	4.84 ± 0.11
GELLATGDKGGRVVIFQREPESKN [PPP2R2C]	4.61 ± 0.37	4.93 ± 0.21

Sequence	protein stability index (treatment: DMSO)	protein stability index (treatment: MLN4924 1 uM, 8 h)
LLDRARGAAAQGQTQTVAAQAQAL [PI4K2A]	4.3 ± 0.29	4.38 ± 0.2
VADMMYFCQMLAVVETINAAIGVT [HACD3]	3.06 ± 0.42	3.2 ± 0.36
APKAGLEEAPAVTAGLKIFEPPAP [TNFSF13B]	4.6 ± 0.26	4.68 ± 0.086
SGTCSPLRHSFQKQQREKTRWLNS [ADD1]	2.96 ± 0.26	3.11 ± 0.059
QHSVPLQLELRAGAERLDALLADE [TRADD]	4.63 ± 0.31	4.62 ± 0.47
EDRIVTQNRVFAYLCKRVPHTVLD [CEP70]	2.27 ± 0.2	2.37 ± 0.37
INTLITSGADTAKCGIHSMFPLHL [ANKRD44]	1.8 ± 0.21	2.64 ± 0.84
PPVRPAGYLLSFHTPGGQNQEILL [TNXB]	2.38 ± 0.29	2.38 ± 0.31
KIRRFNKAKPEPDILEEEKIYAYP [TMEM192]	3.27 ± 0.35	3.54 ± 0.52
ELLALETALGGQCVDRQEVAEITK [TCAP]	4.15 ± 0.26	4.5 ± 0.24
VRILLRRGVDVSLQGKDAWLPLHY [RIPK4]	2.99 ± 1.7	2.29 ± 0.44
VQNGTYLQRVLQNCPWPMSCPGSS [EMID1]	2.12 ± 0.36	3.17 ± 1.1
GTELIQTPLASSTDHQTPPTSPVQ [HDAC6]	5.11 ± 0.33	5.25 ± 0.29
SNFEQTQIQEFKEAFTLMDQNRDG [MYL5]	5.11 ± 0.2	4.93 ± 0.33
DKMEGNPICVQIPWDKNPEALAKW [CRY1]	4.54 ± 0.094	4.33 ± 0.24
AASVRMRGEAEAFAIGARARAEAE [FLOT1]	5.32 ± 0.17	4.96 ± 0.23
KKQDENEGIKVEDLLFIVDTMLEE [CEP70]	3.25 ± 0.22	3.27 ± 0.23
KVKWTHEEDEQLRALVRQFGQQDW [MYBL2]	3.19 ± 0.44	3.44 ± 0.12
QIDQIKRHSNVVILTTSNITEKID [TRIP13]	3.21 ± 0.28	3.4 ± 0.19
NACATKEQKNHTFPRLNRNKYMVT [PLD5]	3.63 ± 0.3	3.77 ± 0.41
LRRKEQLWEKLAKQGELPREVRRA [NOP53]	3.58 ± 0.18	3.7 ± 0.36
QLLLQFERLVVLDYIIRNTDRGND [PI4K2A]	2.98 ± 0.47	2.64 ± 0.36
GARCATWFQDPTRFTGTMDAFVKI [SLC25A39]	2.36 ± 0.5	2.61 ± 0.54

Sequence	protein stability index (treatment: DMSO)	protein stability index (treatment: MLN4924 1 uM, 8 h)
RKKEAKRKISSLSFTLEEEEEGGE [FAM50A]	5.33 ± 0.41	5.67 ± 0.41
TSRRSGVGLAVVNGQLMAVGGFDG [KLHL20]	2.99 ± 0.23	2.94 ± 0.41
MVMIRGNSGLKPKDNEFTSKPWHW [POMT2]	2.38 ± 0.26	2.21 ± 0.25
KNTSEQDQPMGGWEMIRKIGDTSV [LMNB1]	4.27 ± 0.18	4.43 ± 0.22
SCCMTEEIFGPVTCVVPFDSEEEV [ALDH8A1]	4.71 ± 0.34	4.83 ± 0.27
ADTRRLNSKPQDLTDAYGPPSNFL [SNX12]	3.97 ± 0.22	3.93 ± 0.068
LCLQLRDDIVSGRLPCSFVTLALL [EPB41L3]	3.24 ± 0.61	2.23 ± 0.45
KNTTYDLIANIVHDGKPSEGSYRI [USP39]	2.62 ± 0.4	2.52 ± 0.32
GGGADTGTGGEEVEALQLSARWLE [FBXO33]	4.91 ± 0.41	5.03 ± 0.43
PFAYLTVLDLSKSLSAALLTAALL [POMT2]	2.98 ± 0.23	3.02 ± 0.16
VGYGDMYPVTIGGKIVGSLCAIAG [KCNA1]	2.09 ± 0.55	2.45 ± 0.28
SEIPRGVRVALDYEAGQVTLHNAQ [TRIM15]	4.45 ± 0.35	4.57 ± 0.11
EELRQEWEAKQEKIKSEEIEITFS [FAM50A]	4.98 ± 0.11	4.95 ± 0.35
SKETRLTLMEEVLLLGLKDREGYT [GOLPH3]	2.8 ± 0.22	2.75 ± 0.28
RLIEVEDMMVMGRKPDPMCVFTYV [SMTNL2]	2.38 ± 0.37	2.59 ± 0.41
QNPQITQLKIAANPFAKGFRENGR [TBX6]	3.33 ± 0.29	3.35 ± 0.46
SEKAMLRSRIEEQSQLICILKRRS [CCDC89]	3.07 ± 0.2	3.19 ± 0.15
GMVTRCIIEVLSNALSKSSAPPIT [CHGB]	3.07 ± 0.29	3.08 ± 0.23
LTCNNYKNKMMVCQVGGIEALVRT [CTNNB1]	2.32 ± 0.38	2.23 ± 0.56
MAAGQNGHEEWVGSAYLFVESSLD [TRADD]	2.05 ± 0.26	2.65 ± 0.37
ELAYLRKNHEEEMLALRGQTGGDV [KRT16]	4.26 ± 0.28	4.41 ± 0.17
PSGTPELEVPKPGQPSEPEHGPSP [CHIT1]	5.52 ± 0.25	5.47 ± 0.18
KVTLRIRNVRFSDEGGFTCFFRDH [MOG]	2.29 ± 0.5	2.21 ± 0.14

Sequence	protein stability index (treatment: DMSO)	protein stability index (treatment: MLN4924 1 uM, 8 h)
FEYSTIKCRDLSALMHELSNDGAR [BTBD10]	2.53 ± 0.31	2.57 ± 0.41
YQASAMMVESRYALLIVDSATALY [RAD51]	2.94 ± 0.47	2.89 ± 0.41
RQAELLEKRLQEIEELEREAERKI [SRPK2]	5.13 ± 0.32	5.18 ± 0.14
DTGVGKSSIVWRFVEDSFDPNINP [RAB22A]	2.93 ± 0.28	3.08 ± 0.29
PPGLPRVSAYVDTTADLDRKLSFS [SPATS1]	3.79 ± 0.26	3.96 ± 0.23
RVILEIDNARLAVDDFRLKYENEL [KRT13]	2.4 ± 0.25	2.66 ± 0.45
DNIKYQPKGGQVQIVTKKIDLSHV [MAP2]	3.34 ± 0.38	3.47 ± 0.3
ATTASPAKVDSSGVIDLFGDAFGS [SNAP91]	4.06 ± 0.2	4.42 ± 0.15
SYSQSSNLFRHQRRHNAEKLLNVV [ZNF24]	2.58 ± 0.27	2.97 ± 0.41
AIHYCASTSEESWTDSEVDSSCSG [SPDEF]	5.28 ± 0.2	5.18 ± 0.37
EEFAQAESKDQGKTLALARTMDIP [ALDH8A1]	5.13 ± 0.19	5.38 ± 0.15
AMVWALDLDDFAGFSCNQGRYPLI [CHIT1]	2.5 ± 0.56	2.65 ± 0.63
PKTVQQPTESEPVTINIQDLLSCS [MATN2]	4.35 ± 0.17	4.32 ± 0.16
GEVLKSSTFSSGPSDKMKWCLRVN [SPOPL]	2.46 ± 0.26	2.43 ± 0.23
FDRVDENNPEYLRERNMAPDLRQD [ADD1]	5.1 ± 0.064	5.32 ± 0.25
HPLAQNERCLHMFLQEEAIDRNYV [SNX12]	3.17 ± 0.4	3.18 ± 0.28
IGFGVYFEWTDSPNTAVSVHVSES [ACBD3]	2.64 ± 0.9	2.95 ± 0.6
EDFTNTLRELGHAEHEITELTATF [PKD2L1]	4.43 ± 0.34	4.22 ± 0.091
EFPADISSITEAVPSESEPPALQN [NFE2L1]	5.31 ± 0.36	5.44 ± 0.22
KQQREKTRWLNSGRGDEASEEGQN [ADD1]	5.54 ± 0.16	5.48 ± 0.26

Reference: the supplement of paper PMC10567573
